From US6403561

Tested on: non-sulphated CCK-8 (Asp-Tyr-Met-Gly-Trp-Met-Asp-Phe-NH2)

Sequence of membrane-bound tripeptidylpeptidase II purified from rat brain (cerebral cortex) membranes (chain, as listed by the source): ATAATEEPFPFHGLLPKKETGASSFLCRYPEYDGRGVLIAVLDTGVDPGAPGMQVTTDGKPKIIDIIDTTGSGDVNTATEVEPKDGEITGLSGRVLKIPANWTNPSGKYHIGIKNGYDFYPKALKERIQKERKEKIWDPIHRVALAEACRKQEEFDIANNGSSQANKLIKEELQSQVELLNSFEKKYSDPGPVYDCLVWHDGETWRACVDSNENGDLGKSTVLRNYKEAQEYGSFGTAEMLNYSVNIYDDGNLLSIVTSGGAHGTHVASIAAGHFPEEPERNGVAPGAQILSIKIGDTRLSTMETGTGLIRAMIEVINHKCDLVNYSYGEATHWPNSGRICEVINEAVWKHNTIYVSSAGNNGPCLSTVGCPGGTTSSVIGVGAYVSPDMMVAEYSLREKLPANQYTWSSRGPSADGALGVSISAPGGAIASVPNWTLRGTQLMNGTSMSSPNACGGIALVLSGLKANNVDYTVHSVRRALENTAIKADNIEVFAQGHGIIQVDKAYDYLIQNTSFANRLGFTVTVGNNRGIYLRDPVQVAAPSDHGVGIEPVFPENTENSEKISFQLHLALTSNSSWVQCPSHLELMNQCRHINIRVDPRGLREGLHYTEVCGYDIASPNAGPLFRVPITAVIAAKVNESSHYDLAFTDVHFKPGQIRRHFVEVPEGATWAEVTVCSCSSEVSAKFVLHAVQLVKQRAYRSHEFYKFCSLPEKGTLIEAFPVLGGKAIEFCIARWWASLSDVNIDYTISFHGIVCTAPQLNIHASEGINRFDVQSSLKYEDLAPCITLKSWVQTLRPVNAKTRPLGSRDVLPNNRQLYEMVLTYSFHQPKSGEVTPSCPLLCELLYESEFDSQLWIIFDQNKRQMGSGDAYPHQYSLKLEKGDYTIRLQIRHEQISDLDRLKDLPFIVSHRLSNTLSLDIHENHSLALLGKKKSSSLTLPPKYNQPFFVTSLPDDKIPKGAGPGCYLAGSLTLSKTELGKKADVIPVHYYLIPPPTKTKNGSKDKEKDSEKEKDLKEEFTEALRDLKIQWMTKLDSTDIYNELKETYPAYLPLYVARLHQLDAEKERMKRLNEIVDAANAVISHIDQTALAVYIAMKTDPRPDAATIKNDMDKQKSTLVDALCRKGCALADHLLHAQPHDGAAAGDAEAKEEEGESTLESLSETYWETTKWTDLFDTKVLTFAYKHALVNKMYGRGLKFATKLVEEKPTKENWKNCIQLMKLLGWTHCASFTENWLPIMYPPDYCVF

## membrane-bound tripeptidylpeptidase II purified from rat brain (cerebral cortex) membranes
  hydrolysis of CCK-8 (products CCK-5 and Gly-Trp-Met measured fluorimetrically after HPLC): only one enzyme is responsible for the two cleavages of the molecule CCK-8
